Assay results reported in patent US6521594 (LA JOLLA CANCER RESEARCH FOUNDATION, dated 2003).
Starred links: 1 amine or outer side, 2 acyl side, 3 side chain; linkers in the order of their positions; H or OH if unused. Positions of bridges follow the written chain, without caps; N, C: chain ends. Non-standard residues stand in square brackets, D forms with d. Primed or numbered codes have the meaning given here. No end group written: not given here. Tyr(OMe)″ = O-methyl-tyrosine (Y-OMe, TyrOMe, O-Me-Tyr), COc1ccc(C[C@H](N[*:1])C(=O)[*:2])cc1; t‑but‑am‑Pmp = tert-butyl-substituted beta,beta-pentamethylenecysteine; Pen = CC(C)(S)[C@H](N)C(=O)O

B1: R(t-but-am-Pmp)GHRGDLRCR-2 (peptide)
peptide: R[t‑but‑am‑Pmp]GHRGDLRCR
modifications: disulfide 2-10; not fully specified; printed as R(t-but-am-Pmp)GHRGDLRCR-2; also: second HPLC peak, configuration not assigned

Tests used:
[1] = target: T1, Platelet glycoprotein IIb/IIIa (human, UniProt P08514 32-1039; P05106 27-788); assay: cell-based or functional assay
[2] = target: T1, Platelet glycoprotein IIb/IIIa; assay: competition, ELISA or liposome assay
[3] = target: T1, Platelet glycoprotein IIb/IIIa; assay: cell-based or functional assay; remark: listed apart in the source
[4] = target: T1, Platelet glycoprotein IIb/IIIa; assay: cell-based or functional assay; remark: listed apart in the source
Vitronectin receptor = target: T2, Vitronectin receptor (human, UniProt P06756 31-1048; P05106 27-788); assay: competition, ELISA or liposome assay, vitronectin coated
T2 construct: mature; also called Vn-R; VnR

Fibronectin receptor = target: T3, Fibronectin receptor (human, UniProt P08648 42-1049; P05556 21-798); assay: competitive ELISA, fibronectin coated
T3 construct: mature; Purified on a 110 kd fibronectin fragment column; also called Fn-R; FnR
T3 sequence (P08648 42-1049, chain 1 of 2): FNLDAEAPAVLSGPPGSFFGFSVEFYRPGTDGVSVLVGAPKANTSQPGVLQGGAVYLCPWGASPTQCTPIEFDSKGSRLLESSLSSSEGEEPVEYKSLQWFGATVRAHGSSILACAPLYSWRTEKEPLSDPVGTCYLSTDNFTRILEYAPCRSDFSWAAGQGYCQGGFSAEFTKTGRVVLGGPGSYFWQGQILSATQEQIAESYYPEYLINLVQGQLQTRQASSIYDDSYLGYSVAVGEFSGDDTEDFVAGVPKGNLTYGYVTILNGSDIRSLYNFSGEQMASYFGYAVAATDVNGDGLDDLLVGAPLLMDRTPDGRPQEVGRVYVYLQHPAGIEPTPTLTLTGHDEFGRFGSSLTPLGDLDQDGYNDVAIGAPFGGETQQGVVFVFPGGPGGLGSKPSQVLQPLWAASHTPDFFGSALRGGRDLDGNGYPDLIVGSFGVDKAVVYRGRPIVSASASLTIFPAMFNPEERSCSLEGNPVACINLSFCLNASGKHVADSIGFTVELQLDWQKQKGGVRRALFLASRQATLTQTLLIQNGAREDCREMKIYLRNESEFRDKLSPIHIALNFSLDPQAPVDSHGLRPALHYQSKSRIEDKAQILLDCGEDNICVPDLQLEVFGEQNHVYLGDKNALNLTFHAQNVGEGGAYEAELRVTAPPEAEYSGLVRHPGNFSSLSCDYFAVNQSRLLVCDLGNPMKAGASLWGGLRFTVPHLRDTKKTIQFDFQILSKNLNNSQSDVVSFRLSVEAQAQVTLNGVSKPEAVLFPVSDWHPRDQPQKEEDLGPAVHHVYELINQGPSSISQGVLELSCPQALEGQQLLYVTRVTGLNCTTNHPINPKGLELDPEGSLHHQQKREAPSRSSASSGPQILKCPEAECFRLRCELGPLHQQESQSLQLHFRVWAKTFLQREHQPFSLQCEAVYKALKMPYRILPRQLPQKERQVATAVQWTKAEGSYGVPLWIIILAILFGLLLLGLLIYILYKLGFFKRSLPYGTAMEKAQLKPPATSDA
T3 sequence (P05556 21-798, chain 2 of 2): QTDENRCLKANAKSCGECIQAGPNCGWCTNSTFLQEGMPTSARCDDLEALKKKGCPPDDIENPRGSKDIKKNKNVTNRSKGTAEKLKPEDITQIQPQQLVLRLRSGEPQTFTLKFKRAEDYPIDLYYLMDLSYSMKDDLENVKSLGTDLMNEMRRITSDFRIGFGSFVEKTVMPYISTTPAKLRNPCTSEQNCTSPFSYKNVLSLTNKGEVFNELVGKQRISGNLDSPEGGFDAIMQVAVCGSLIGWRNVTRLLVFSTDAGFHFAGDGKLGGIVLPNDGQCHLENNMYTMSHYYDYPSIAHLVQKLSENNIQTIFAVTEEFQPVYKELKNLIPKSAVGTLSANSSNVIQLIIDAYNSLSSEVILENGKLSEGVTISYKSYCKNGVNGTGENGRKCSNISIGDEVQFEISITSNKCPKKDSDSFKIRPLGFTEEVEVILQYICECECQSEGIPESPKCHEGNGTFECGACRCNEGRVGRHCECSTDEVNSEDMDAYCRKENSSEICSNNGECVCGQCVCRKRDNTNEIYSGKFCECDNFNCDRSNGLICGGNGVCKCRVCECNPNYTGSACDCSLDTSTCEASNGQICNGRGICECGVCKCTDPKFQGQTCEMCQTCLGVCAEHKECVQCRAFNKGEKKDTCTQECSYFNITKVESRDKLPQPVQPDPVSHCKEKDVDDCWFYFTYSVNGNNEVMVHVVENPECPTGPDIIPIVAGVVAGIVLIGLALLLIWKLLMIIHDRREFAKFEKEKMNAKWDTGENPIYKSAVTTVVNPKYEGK

T2 sequence (P06756 31-1048, chain 1 of 2): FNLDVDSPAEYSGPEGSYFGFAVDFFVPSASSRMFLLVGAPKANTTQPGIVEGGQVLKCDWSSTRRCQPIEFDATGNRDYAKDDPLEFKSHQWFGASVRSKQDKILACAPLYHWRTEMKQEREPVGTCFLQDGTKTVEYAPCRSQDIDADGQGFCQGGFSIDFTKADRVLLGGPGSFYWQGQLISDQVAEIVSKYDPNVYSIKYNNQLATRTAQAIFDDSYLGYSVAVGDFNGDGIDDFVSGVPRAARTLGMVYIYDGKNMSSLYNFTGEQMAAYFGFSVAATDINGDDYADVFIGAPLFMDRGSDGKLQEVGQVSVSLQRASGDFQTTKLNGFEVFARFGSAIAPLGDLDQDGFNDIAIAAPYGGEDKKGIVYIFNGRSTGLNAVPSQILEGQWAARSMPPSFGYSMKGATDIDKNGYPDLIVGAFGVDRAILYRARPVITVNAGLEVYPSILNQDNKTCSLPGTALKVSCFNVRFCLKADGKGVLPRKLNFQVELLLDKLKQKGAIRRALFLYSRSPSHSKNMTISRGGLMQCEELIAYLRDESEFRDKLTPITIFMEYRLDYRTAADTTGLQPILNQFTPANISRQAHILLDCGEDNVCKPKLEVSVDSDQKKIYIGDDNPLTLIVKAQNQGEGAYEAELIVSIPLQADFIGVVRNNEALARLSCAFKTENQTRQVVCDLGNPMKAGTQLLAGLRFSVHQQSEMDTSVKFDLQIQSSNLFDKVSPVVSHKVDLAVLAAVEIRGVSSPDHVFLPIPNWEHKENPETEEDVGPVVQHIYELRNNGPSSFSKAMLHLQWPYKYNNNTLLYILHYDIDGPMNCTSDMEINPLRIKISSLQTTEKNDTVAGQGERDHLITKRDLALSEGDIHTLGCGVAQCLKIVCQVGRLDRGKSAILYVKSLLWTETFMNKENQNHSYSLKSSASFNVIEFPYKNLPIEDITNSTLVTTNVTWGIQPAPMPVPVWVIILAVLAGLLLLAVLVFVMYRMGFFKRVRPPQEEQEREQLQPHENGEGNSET
T2 sequence (P05106 27-788, chain 2 of 2): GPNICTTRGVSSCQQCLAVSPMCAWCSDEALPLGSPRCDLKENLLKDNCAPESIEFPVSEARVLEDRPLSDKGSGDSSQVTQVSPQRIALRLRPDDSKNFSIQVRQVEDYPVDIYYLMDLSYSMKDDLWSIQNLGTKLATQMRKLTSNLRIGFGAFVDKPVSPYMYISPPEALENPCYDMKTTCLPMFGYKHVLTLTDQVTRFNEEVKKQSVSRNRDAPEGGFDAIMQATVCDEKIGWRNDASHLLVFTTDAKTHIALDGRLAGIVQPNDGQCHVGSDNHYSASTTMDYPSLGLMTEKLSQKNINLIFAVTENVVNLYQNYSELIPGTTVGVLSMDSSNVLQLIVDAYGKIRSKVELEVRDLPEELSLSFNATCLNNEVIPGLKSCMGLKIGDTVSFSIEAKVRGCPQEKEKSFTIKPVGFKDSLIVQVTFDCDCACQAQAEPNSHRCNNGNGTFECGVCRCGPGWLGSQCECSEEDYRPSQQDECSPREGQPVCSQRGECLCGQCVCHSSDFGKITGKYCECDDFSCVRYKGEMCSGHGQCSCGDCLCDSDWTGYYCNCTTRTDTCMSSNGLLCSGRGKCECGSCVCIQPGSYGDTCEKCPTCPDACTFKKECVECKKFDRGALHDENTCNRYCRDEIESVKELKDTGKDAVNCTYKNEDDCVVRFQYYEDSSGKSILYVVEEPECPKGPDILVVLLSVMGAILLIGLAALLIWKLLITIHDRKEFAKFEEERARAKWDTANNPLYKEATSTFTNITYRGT

Row | Binder | IC50 (µM) Human Platelet Aggregation [1] | IC50 [2] | Inhibition of Platelet Aggregation, IC50 [3] | IC50, ADP-Stimulated Aggregation [4] | IC50 (Vitronectin receptor) | IC50 (Fibronectin receptor)
1 | R[Pen]GHRGDWRCR (disulfide 2-10, also called 4Q) [R(Pen)GHRGDWRCR] | 3.3 µM | 800 nM | – | – | – | –
2 | Ac-CDPRGD[Tyr(OMe)″]RC-NH2 (disulfide 1-9 (inferred)) [AcCDPRGD(TyrOMe)RC-NH2] | – | – | 3 µM | – | – | –
3 | VRGDSPDG | – | 270 nM | – | 92 µM | 240 nM | 40 nM
4 | B1 | – | 60 nM | – | – | 3700 nM | –
